Reference: publication PMC3874396

Columns and labels:
[1] = target: RNC^EspP-Hydro-SRP complex (SRP with DACM-labeled Ffh(C235), loaded with RNC^EspP-Hydro) (Escherichia coli | not stated) (UniProt P0AGD7); experiment: FRET or BRET
[2] = target: RNC^EspP-SRP complex (SRP with DACM-labeled Ffh(C235), loaded with RNC^EspP) (Escherichia coli | not stated) (UniProt P0AGD7); experiment: FRET or BRET
[3] = target: SRP with fluorescein-labeled Ffh(C421) (Escherichia coli) (UniProt P0AGD7); experiment: […]

Row | Substance | Kd [1] [nM] | kon [1] [M⁻¹ s⁻¹] | Kd [2] [nM] | kon [2] [M⁻¹ s⁻¹] | Kd [3] [nM]
1 | BODIPY-FL (acceptor)-labeled FtsY(C487) (from UniProt P10121 1-497) (receptor) | 300 | 15200 | 311 | 9200 | –
2 | RNC^EspP (ribosome-nascent chain complex displaying the EspP signal sequence) (from UniProt Q7BSW5 56-88) | – | – | – | – | 13.6
